These results are taken from article PMC7563123 (Biomolecules, 2020).

Common to all, as to conditions: both partners purified
In assay [1] the target is T1, amyloid beta peptide 1-42 (Aβ1–42) (human, UniProt P05067 672-713).
T1 construct: amyloid beta peptide of 42 amino acids, human, produced from amyloid precursor protein; numbers count on: the Aβ peptide; One peptide used in two states; Preparation B (NaOH) is called monomeric, though it might hold monomers and low oligomers; Preparation A (plain dilution of the stock) is called oligomeric, and the size of the oligomers is not determined; The states are told apart by the …
Briefly: SPR; oligomeric Aβ1–42 (Preparation A, dilution of the stock), 1.1-0.055 μM, flowed over cypD or 17β-HSD10 captured by immobilised antibody; running buffer RB1 (10 mM HEPES pH 7.4, BSA 200 μg/mL, 5 mM Na+, 140 mM K+, 1 mM Mg2+); 25 °C, 20 µL/min; global fit, 1:1 Langmuir model.

Assay [2] deals with T2, amyloid beta peptide 1-40 (Aβ1–40) (human, UniProt P05067 672-711).
T2 construct: amyloid beta peptide of 40 amino acids, human, produced from amyloid precursor protein; numbers count on: the Aβ peptide; Stock dissolved in 1% NH4OH and diluted by PBS to 100 μM; Preparation C (HFIP) is called monomeric, though it might hold monomers and low oligomers; also called monomeric Aβ_(1–40); source: synthetic peptide, bought: AnaSpec
Briefly: SPR; monomeric Aβ (Aβ1–40 by Preparation C, HFIP; Aβ1–42 by Preparation B, NaOH), five concentrations, flowed over cypD or 17β-HSD10 captured by immobilised antibody; running buffer RB1 (10 mM HEPES pH 7.4, BSA 200 μg/mL, 5 mM Na+, 140 mM K+, 1 mM Mg2+); 25 °C, 20 µL/min; global fit, 1:1 Langmuir model. In general terms: SPR reads the build-up and loss of mass on a sensor chip optically.

For assay [3], the target named is T1, amyloid beta peptide 1-42 (Aβ1–42). The assay is described as above.

B1: cyclophilin D (cypD), human recombinant (enzyme)
chain: not shown
notes: cyclophilin D, human recombinant, NCBI Gene ID 10105; Commercial protein; It was held on the chip by an immobilised anti-cypD antibody; source: bought: Fitzgerald
Consider B1, for which, in assay [1], the affinity, expressed as Kd, was 5.3 ± 1.2 nM; the koff – broadly, the rate constant with which the complex falls apart – worked out at 6.1e-05 s⁻¹; the on-rate constant (kon) (as a rule, the rate constant with which the complex forms) was 11100 M⁻¹ s⁻¹. Besides, in assay [2], binding was put at a Kd of 160 ± 57.8 nM, the koff amounted to 0.000174 s⁻¹ and the association rate constant (kon) was 1170 M⁻¹ s⁻¹. In addition, in assay [3], the Kd (usually the concentration at which binding is half-saturated) was 56.5 ± 5.4 nM, the koff amounted to 0.000139 s⁻¹ and the kon is 2690 M⁻¹ s⁻¹.
